Test results taken from US6534281.

Key:
human C-peptide (human) [1] = assay: sandwich immunoassay, one-step; CPT-3F-11 on particles, labeled antibody 9101
human C-peptide (human) [2] = assay: sandwich immunoassay, one-step; CPT-3F-11 on particles, labeled antibody PEP-001
human C-peptide (human) [3] = assay: sandwich immunoassay, two-step; CPT-3F-11 on particles, labeled antibody PEP-001
human C-peptide (human) [4] = assay: ELISA on immobilized C-peptide; labeled antibody 10 ug/ml, free C-peptide 0 ug/ml
human C-peptide (human) [5] = assay: ELISA on immobilized C-peptide; labeled antibody 10 ug/ml, free C-peptide 10 ug/ml
human C-peptide (human) [6] = assay: ELISA on immobilized C-peptide; labeled antibody 0.1 ug/ml, free C-peptide 0 ug/ml
human C-peptide (human) [7] = assay: ELISA on immobilized C-peptide; labeled antibody 1.0 ug/ml, free C-peptide 0 ug/ml
human C-peptide (human) [8] = assay: ELISA on immobilized C-peptide; labeled antibody 0.1 ug/ml, free C-peptide 10 ug/ml
human C-peptide (human) [9] = assay: ELISA on immobilized C-peptide; labeled antibody 1.0 ug/ml, free C-peptide 10 ug/ml
human C-peptide (human) [10] = assay: ELISA on immobilized C-peptide; labeled antibody 10 ug/ml, free C-peptide 0.1 ug/ml
human C-peptide (human) [11] = assay: ELISA on immobilized C-peptide; labeled antibody 0.1 ug/ml, free C-peptide 0.1 ug/ml
human C-peptide (human) [12] = assay: ELISA on immobilized C-peptide; labeled antibody 0.1 ug/ml, free C-peptide 1.0 ug/ml
human C-peptide (human) [13] = assay: ELISA on immobilized C-peptide; labeled antibody 1.0 ug/ml, free C-peptide 0.1 ug/ml
human C-peptide (human) [14] = assay: ELISA on immobilized C-peptide; labeled antibody 1.0 ug/ml, free C-peptide 1.0 ug/ml
human C-peptide (human) [15] = assay: ELISA on immobilized C-peptide; labeled antibody 0.0 ug/ml (blank), free C-peptide 0 ug/ml
human C-peptide (human) [16] = assay: ELISA on immobilized C-peptide; labeled antibody 0.0 ug/ml (blank), free C-peptide 10 ug/ml
human C-peptide (human) [17] = assay: ELISA on immobilized C-peptide; labeled antibody 0.0 ug/ml (blank), free C-peptide 0.1 ug/ml
human C-peptide (human) [18] = assay: ELISA on immobilized C-peptide; labeled antibody 10 ug/ml, free C-peptide 0 ug/ml (reference)
human C-peptide (human) [19] = assay: ELISA on immobilized C-peptide; labeled antibody 0.1 ug/ml, free C-peptide 0 ug/ml (reference)
human C-peptide (human) [20] = assay: ELISA on immobilized C-peptide; labeled antibody 1.0 ug/ml, free C-peptide 0 ug/ml (reference)
human proinsulin (human) [21] = target: human proinsulin (human) (UniProt P01308); assay: sandwich immunoassay, one-step; proinsulin 200 ng/ml; CPT-3F-11 on particles, labeled antibody 9101
human proinsulin (human) [22] = target: human proinsulin (human) (UniProt P01308); assay: sandwich immunoassay, one-step; proinsulin 400 ng/ml; CPT-3F-11 on particles, labeled antibody 9101
human proinsulin (human) [23] = target: human proinsulin (human) (UniProt P01308); assay: sandwich immunoassay, two-step; proinsulin 200 ng/ml; CPT-3F-11 on particles, labeled antibody 9101
human proinsulin (human) [24] = target: human proinsulin (human) (UniProt P01308); assay: sandwich immunoassay, one-step, against C-peptide calibration; proinsulin 200 ng/ml; CPT-3-F11 on particles, labeled antibody 9101
human proinsulin (human) [25] = target: human proinsulin (human) (UniProt P01308); assay: sandwich immunoassay, one-step, against C-peptide calibration; proinsulin 400 ng/ml; CPT-3-F11 on particles, labeled antibody 9101
human proinsulin (human) [26] = target: human proinsulin (human) (UniProt P01308); assay: sandwich immunoassay, two-step, against C-peptide calibration; proinsulin 200 ng/ml; CPT-3-F11 on particles, labeled antibody 9101
human proinsulin (human) [27] = target: human proinsulin (human) (UniProt P01308); assay: sandwich immunoassay, two-step, against C-peptide calibration; proinsulin 400 ng/ml; CPT-3-F11 on particles, labeled antibody 9101
human proinsulin (human) [28] = target: human proinsulin (human) (UniProt P01308); assay: sandwich immunoassay, one-step, against C-peptide calibration; proinsulin 50 ng/ml; CPT-3-F11 on particles, labeled antibody PEP-001
human proinsulin (human) [29] = target: human proinsulin (human) (UniProt P01308); assay: sandwich immunoassay, one-step, against C-peptide calibration; proinsulin 200 ng/ml; CPT-3-F11 on particles, labeled antibody PEP-001
human proinsulin (human) [30] = target: human proinsulin (human) (UniProt P01308); assay: sandwich immunoassay, one-step, against C-peptide calibration; proinsulin 400 ng/ml; CPT-3-F11 on particles, labeled antibody PEP-001
[31] = target: modified C-peptide (human C-peptide having Arg-Arg bound to its N-terminal and Lys-Arg bound to its C-terminal) (human); assay: sandwich immunoassay, one-step, against C-peptide calibration; modified C-peptide 5 ng/ml; CPT-3F-11 on particles, labeled antibody 9101
[32] = target: modified C-peptide (human C-peptide having Arg-Arg bound to its N-terminal and Lys-Arg bound to its C-terminal) (human); assay: sandwich immunoassay, two-step, against C-peptide calibration; modified C-peptide 5 ng/ml; CPT-3F-11 on particles, labeled antibody 9101
[33] = target: modified C-peptide (human C-peptide having Arg-Arg bound to its N-terminal and Lys-Arg bound to its C-terminal) (human); assay: sandwich immunoassay, one-step, against C-peptide calibration; modified C-peptide 5 ng/ml; CPT-3F-11 on particles, labeled antibody PEP-001

Sequence of UniProt P01308 (P01308 25-110): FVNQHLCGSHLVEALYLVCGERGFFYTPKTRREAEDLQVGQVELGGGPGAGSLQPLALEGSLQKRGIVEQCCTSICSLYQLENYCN
Sequence of modified C-peptide (human C-peptide having Arg-Arg bound to its N-terminal and Lys-Arg bound to its C-terminal) (human) (peptide, as listed by the source): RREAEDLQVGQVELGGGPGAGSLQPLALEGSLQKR
Sequence of human C-peptide (human) (peptide, as listed by the source): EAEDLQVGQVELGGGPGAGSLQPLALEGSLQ

Work on “anti-human C-peptide monoclonal antibody CPT-3-F11 (Dako)” yielded a 2S/N value (human C-peptide (human) [1]) of 0.008 ng/mL, a 2S/N value (human C-peptide (human) [2]) of 0.012 ng/mL and a 2S/N value (human C-peptide (human) [3]) of 0.006 ng/mL. For the same substance, the Absorbance (absorbance at 405 nm) (human C-peptide (human) [4]) was 2.17, the Absorbance (absorbance at 405 nm) (human C-peptide (human) [5]) was 0.008 and the Binding Ratio (human C-peptide (human) [5]) was 0.1%. For the same substance, the Absorbance (absorbance at 405 nm) (human C-peptide (human) [6]) was 1.52, the Absorbance (absorbance at 405 nm) (human C-peptide (human) [7]) was 1.94 and the Absorbance (absorbance at 405 nm) (human C-peptide (human) [8]) was 0. It also gave a Binding Ratio (human C-peptide (human) [8]) of 0%, an Absorbance (absorbance at 405 nm) (human C-peptide (human) [9]) of 0.003 and a Binding Ratio (human C-peptide (human) [9]) of 0.2%. It also gave an Absorbance (absorbance at 405 nm) (human C-peptide (human) [10]) of 0.336, a Binding Ratio (human C-peptide (human) [10]) of 15.5% and an Absorbance (absorbance at 405 nm) (human C-peptide (human) [11]) of 0.179. For the same substance, the Binding Ratio (human C-peptide (human) [11]) was 11.8%, the Absorbance (absorbance at 405 nm) (human C-peptide (human) [12]) was 0.026 and the Binding Ratio (human C-peptide (human) [12]) was 1.7%. For the same substance, the Absorbance (absorbance at 405 nm) (human C-peptide (human) [13]) was 0.311, the Binding Ratio (human C-peptide (human) [13]) was 16% and the Absorbance (absorbance at 405 nm) (human C-peptide (human) [14]) was 0.062. For the same substance, the Binding Ratio (human C-peptide (human) [14]) was 3.2%, the Absorbance (absorbance at 405 nm) (human C-peptide (human) [15]) was 0 and the Binding Ratio (human C-peptide (human) [15]) was 0%. For the same substance, the Absorbance (absorbance at 405 nm) (human C-peptide (human) [16]) was 0, the Binding Ratio (human C-peptide (human) [16]) was 0% and the Absorbance (absorbance at 405 nm) (human C-peptide (human) [17]) was 0. The Binding Ratio (human C-peptide (human) [17]) was 0%, the Binding Ratio (human C-peptide (human) [18]) was 100% and the Binding Ratio (human C-peptide (human) [19]) was 100%. For the same substance, the Binding Ratio (human C-peptide (human) [20]) was 100%, the counts of chemiluminescence (human proinsulin (human) [21]) was 51300 counts and the counts of chemiluminescence (human proinsulin (human) [22]) was 118000 counts. It also gave a counts of chemiluminescence (human proinsulin (human) [23]) of 42500 counts, a Cross-reactivity (%) to Human Proinsulin (human proinsulin (human) [24]) of 2.6% and a Cross-reactivity (%) to Human Proinsulin (human proinsulin (human) [25]) of 3%. For the same substance, the Cross-reactivity (%) to Human Proinsulin (human proinsulin (human) [26]) was 1.2%, the Cross-reactivity (%) to Human Proinsulin (human proinsulin (human) [27]) was 1.4% and the Cross-reactivity (%) to Human Proinsulin (human proinsulin (human) [28]) was 56.8%. For the same substance, the Cross-reactivity (%) to Human Proinsulin (human proinsulin (human) [29]) was > 30%, the Cross-reactivity (%) to Human Proinsulin (human proinsulin (human) [30]) was > 15% and the Cross-reactivity (%) to Modified C-peptide [31] was 0.5%. For the same substance, the Cross-reactivity (%) to Modified C-peptide [32] was 0.5% and the Cross-reactivity (%) to Modified C-peptide [33] was 62.7%.
